Measurements from the nanobody polyreactivity screen of Harvey et al. (2022).

Assay: yeast display, Sf9 membrane polyspecificity reagent, FACS + sequencing; frameworks hold sequencing errors
Outline: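 Galactose induction of a Saccharomyces cerevisiae BJ5465 synthetic nanobody display library ran 36–48 hours. The cells were then stained for 1 hour at 4 °C with 10% biotinylated, detergent-solubilized Sf9 membrane reagent, pulled down on streptavidin microbeads and FACS-sorted into low and high (top ~1%) gates on expression and reagent-binding fluorescence. Labels for polyreactivity follow the gate of origin.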

Row | Sequence | polyreactivity (PSR sort gate)
1 | QVQLVESGGGLVQAGGSLRLSCAASGFTFWANAMGWYRQAPGKERELVAAISWSGGSTTYADSVKGRFTISRDNAKNTVYLQMNSLKPEDTAVYYCATDYGHYVTYRLSDYWGQGTQVTVSS | low polyreactivity
2 | QVQLVESGGGIVQARGSLRLSCAASGRIFAPYAMGWYRQAPGKERELVAAIRISGDSTYYADSVKGRFTISRDNAKNTVYLQMNSLKPHDTAVYYCAAEYYILHWFGYAGYPAYNYWGQGTQVTVSS | high polyreactivity
3 | QVQLVESGGGLVQAGGSLRLSCAASGSTFYSNVMGWYRQAPGKERELVAAISQSGGRTFYADSVKGRFTISRDNAKNTVYLQMNSLKPEDTAVYYCNNVRAQPRNPYDYWGQGTQVTVSS | high polyreactivity
4 | QVQLVESGGGLVQAGGSLRLSCAASGFTFAAYAMGWYRPAPGKERELVAAITSRDGTTYYADSVKGRFTISRNNAKNTVYLQMNSLKPEDTAVYYGAKDHFTWGVSEDDYWRQGTQVTVSS | low polyreactivity
5 | QVQLVESGGGLVQAGGSLRLSCAASGFTFKYNAMGWYRQAPGKERELVAGITLRGGSTYYADSVKGRFTISRDNAKNTVYLQMNSLKPEDTAVYYCGAAASNWREYWYWGQGTQVTVSS | low polyreactivity
6 | QVQLVESGGGLVQAGCSLRLSCAASGRTFGSYAMGWYRQAPGKERDLVAGITWRDGSTYYADSVKGRFTISRDNAKNTVYFQMNSLKPEDTAVYYCDKEAVRYYLFGMEYWGQGNQVTVSS | low polyreactivity
7 | QVQLVESGGGLVQAGGSLRLSCAASGSTFLYYAMGWYRQAPGKERELVAAIDSGGSTYYADSVKGRFTISRDNAKNTVYLQMNSLKPEDTAVYYCNADFADHWPPNGPGALDYWGQGTQVTVSS | low polyreactivity
8 | QVQLVESGGGLVQAGGSHRLSCAASGRILYRNVMGWYRQAHGKERELVAGISFTGGSTYYADSVKRRFTISRDNAKNTVYLQMNSLKPEDTAVYYCAATYSSYWARYYYWGQGTPVTVSS | high polyreactivity
9 | QVQLVESGGGLVQAGGILRLSCASSGSIFGYYAMGWYRQAPGKERELVAAIDSGGGSTYYADSVKERFTISRDNAKNTVYFQMNSLKPEDTAVYYCAAVSYSYPSLLYEYWGQGTQVTVSS | low polyreactivity
10 | QVQLVESGGGLVQAGGSLRLSCAASGVIFSLYAMGWYRQAPGKERELVAVITWSDGRTYYADSVKGRFTISRDNAKNTVYLQMNSLKPEDTAVYYCAAADWITEYDYWGQGTHVTVSS | low polyreactivity
11 | QVQLVESGGGLVQAGCSHSLSCAASGSIFWNNAIGSFRQAPVKEREFVAGITGRGGSTYYADSVKGRFTISRDNAKNTVYLQMNSLKPEDTEVYYCATRYLVYRGKYDYWGQGTQVTVSS | high polyreactivity
12 | QVQLVESGGGLVQAGGSLRLSCAPSGRISFRYAMGWYRQAPGKERELVAAINRGGITNYADSVKGRFTISRDNAKNTVYLQMNSLKPEDTADYYCAAEGFYDYYNGFDYSGQGTQVTVSS | high polyreactivity
13 | QVQLVESGGGLVQAGGSLRLSCAASGRIFSGNVMGWYRQAPGKERELVAAISRSGGSTYYADSVKGRFTISRDNAKNTVYLQMNSLKPEDTAVYYCADVPTSNSFRSSFYYWGHGTQVTVSS | high polyreactivity
14 | QVQLVEAGGGLVQAGGSLRLSCAASGSIFGSYAMGWYRQAPGKERELVAAISGSGGRTYYADSVKGRFTISRDNAKISVYLQMNSLKPDDTAVYYCAAAYPRVTYNYGYYWGQGTQVTVSS | high polyreactivity
15 | QVQLVESGGGLVQAGGSLRLSCAASGSIFRYYAMGAYRQAPGKARELVAAISIRGGRTYYADSVKGRFTISRDNAKNTVYLQMNSLKPEDTAVYYCATAFGFTAKYYYWGQGTQVTVSS | high polyreactivity
16 | QVQLVESGGGLVQAGGSLSLSCAASGSIFYVYAMGWYRQAPGKERELVASINKSGGSTYYADSVKGRFTISRDNAKNTVYLQMNSLKPEDTAVYYCAARYGWPRVGFQYPAHVGFDYWGQGTQVTVSS | low polyreactivity
17 | QVQLVESGGGLVQARVSLRLSCPASGRIFARYALGSSRQAPGTEREFVAAISRGGSTKYADSEKGRFTISRDNAKNTVYLQMNSLKPEDTAVYYCARQLWGSAYGAYYAGDYWGQGTQVTVSS | low polyreactivity
18 | QVQLVESGGGLVQAGGSLRLSCAASGRTFRVNSMGWYRPAPGKDRELVATIRWTGGSTYYADSVKGRFTISRDNAKNTVYLQMNSLKPEDTAVYYCAARIAVYHRGIGGYWGQGTQVTVSS | high polyreactivity
19 | QVQLVESGGGLVQAGGSLRLSCAASGRIFAGYAMGWYRKAPGKERELVASIRSSGSTYYADSVKGRFTISRDNAKNTVYLQMNSLKPEDTAVYYCAARSGYFRSRFDYWGQGTQVTVSS | high polyreactivity
20 | QVQLVASGGGLVQAGGSLRLSCAASGSTFPRYAMGWYRQAPWKERELVAAITTSGGSTYYADSVKGRFTISRDNAKNTVYLQMNRLKPEDTAVYYCAADYCYYLDAGYYWGQGTQVTVSS | low polyreactivity
21 | QVQLVESGGGLVQAGGSLRLSCAAYGSTFDRNAMGWYRQAPGKERDLVAAISWRGGSTYYSDSVKGRFTISRDNAKNTVYLQMNSLKPDDTAVYYCNKVVTWQGPYDYWGQGTQVTVSS | high polyreactivity
22 | QVQLVESGGGLVQAGGSLRLSCAASGNILIGNVMGWYRQAPGKERELVAAITSGGDTYYADSVKGRFTISRDNAKNTVYLQMNSLKPEDTAVYYCAADRPGQPKYEYWGQGTQVTVSS | low polyreactivity

Row | Sequence | polyreactivity (PSR sort gate)
23 | QDQLVESGGGLVQAGGSLRLSCAASGRTFKINAMGWYRHAPGTERELVAAITYSGCTTYYADSVKGRFTISRDNAKNTVYLQMNSLKPEDTAVYYCATPSRKSGVGYPSYNYWGQGTQVTVSS | high polyreactivity
24 | QVQLVESGGGLVQAGGSLRLSCAASGSIFGANVMGWYRQAPGKERELVAAISFSGGSTFYADSVKGRFTISRDNAKNTVYLQMNSLKPEDTAVYYCAASYGGKGVKYYYWGQGTQVTVSS | high polyreactivity
25 | QVQVVESGGGLVQAGGSLRLSCAASGSISDSYAMGWYRQAPGKERELVAAITSGDSTYYADSVKGRFTISRDNAKNTVYLQMNSLKPEDTAVYYCAKRVSRVRGYGFTDWSEYDYWGQVTQVTVSS | low polyreactivity
26 | QVQLVESGGGLVQAGGSLRLSCAASGIIFPFYAMGWYRQAPGKERELVAAITSGDDTYYADSVKGRFTISRDNAKNTVYLQMNSLKPEDTAVYYCNKRLYIAGYWPQLYYIMDYWGQGTQVTVSS | low polyreactivity
27 | QVQLVESGGGLVQAGGSLRLSCAASGSTFDYNAMGCYRQAPRKERELDAVIRSGGTTYYADSVKGRFTISRVNAKNTVYLQMNSLKPEDTAVYYCAASFQRRAGSYGGSRRYGYLGQGTQVTVSS | high polyreactivity
28 | QVQLVESGGGLFQAGGSLRLSCAASGRTFQVNAMAWYRHAPGKERELVAAISASDGSTYADSVKGRFTISRDNAKNTVYLQMNSLKPEDTAVYYCNKADYGGHRTSEQVGWVYLYDYWGQGTQVTVSS | low polyreactivity
29 | QVQHVESGRGLVQAGGSLRLICAASGRTFGRNAMGWYRQAPGQERELVAAITSGGSTSYADSVKGRFTISRDNAKNPVYLQMNSLKPEDTAVYYCRQFSVWGYDYWGQGTQLTVSS | high polyreactivity
30 | QVQLVESGGGIVQAGGSLRLSCAASGNTFGYYAIGWYRQAPGKERELVAAINFGGDTSYADSVKGRFTISRDNAKNTVYLQMNSLKPEDTAVYYCNRVPSWRIDYDYWGQGTQVTVSS | low polyreactivity
31 | QVQLVESGGGLVQAGGSLRLSCAPSGLTYRRYTMGWYRQAPGKEREFVAAISWGGDSTYYADSVKGRFTISRDNAKNTVYLQLTSLKPEDTAVYYCAADFLYIYNYWGQGTQVTVSS | high polyreactivity
32 | QVQLEESGGGLVQAGGSLRLSCAASGRILYGYAKGSYRQAPGKERELVASITWSGGSTYADSVKGRFTFSRDNAKNTVYLQMNSLKTEDTSVYYCSTRRGQKWQWLTYGYWGQGTQVTVSS | low polyreactivity
33 | QVQLVESGGGLVQAGGSLRLSCAASGNTFVYNDMGWYRQAPGKERELVADIRYSGSTYYADSVKGRFTISRDNAKNTVYLQMNSLKPEDTAVYYCAVDSYYFLKDPISYGLYYYWGQGSQVTVSS | low polyreactivity
34 | QVQLQERGVGLVQAGGTISLGYDMVWYRQAPGKEREFVAGIDTCAITYYADSVKGRFTNSRDNAKNTVYLQMNILNPEDTAVYYCAANQTHTYAHSYWGQGTQVTVSS | high polyreactivity
35 | QVQLVESGGGLVQAGGSLRLSCAASGNTFLWYAMGWYRQAPGKERELGAAISRGGGSTYYADSVKGRFTISRDNAKNTVYLQMNSLKPEDTAVYYCAARTYYSARSIHYREFEYWGQGTQVTVSS | high polyreactivity
36 | QVQLVESGGGLVQAGGSLRLSCAASGITFSYAMGWYRQAPGKERELVAGITTSGGSTYADSVKGRFTISRDNAKNTVYLQMNSLKPEDTAVYYCAADRSAVQFSAFLEYDYWGQGTQVTVSS | low polyreactivity
37 | QVQLVESGGGLVQAGGSLRVSCADSGGIFALNDMGWYRQAPGKERELVAAINGAGTYYADSVKGRFTISRDNAKNTVYLQRNSLKPEDTAVYYCARGSLHWEYARTWTRVEYDYWGQGTQVTVSS | low polyreactivity
38 | QVQLVESGGGLVQAGGSLRLICAASGRTFGGYAMGWYRQAHGKERELVAAISDRGTSTYYADSVKGRFTISRDNAKYTVYLQMNSVKPEDTAVYYCAASSARRRMDYWGQGTQVTVSS | high polyreactivity
39 | QVQLVESGGGLVQAGGSLRLSCAASGSIFWSNDMGWYRQAPGKERELVAAITITGDTTYYADSVKGRFTISRDNAKNTVYLQMNSLKPEDTAVYYCAAVEVRRVADYGFCLLDYWGQGTQVTVSS | high polyreactivity
40 | QVQLVESGGGLVQAGGSLRLSCAASGRTFSPYAMAWYRQAPGKEREFVAAIRVRGGSTYYADSVKGRFTISRDNAKNTVYLQMNSLKPEDTAVYYCNAQYLVYNGYPYLYDYWGQGTQVTVSS | high polyreactivity
41 | QVQLVESGGGLVQAGGSLRLSCAASGRIFGRNAMGWYRQAPGKERELVAAISSSGGTYYADSVKGRFTISRDNAKNTVYLQMNSLKPEDTAVYYCNARVRTQQRWVDYWGQGTQVTVSS | high polyreactivity
42 | QVQHVESGGGLVQAGGSLRFSCAASGFIFIRNGMGWYRQAPGKERELVAAISARGGSTYYADSVKGRFTISRDNAKNTVYLQMNSLKPEDTALYYCAAYRPRKYDYWGQGTQVTVSS | high polyreactivity
43 | QVQLVESGGGLVQAGGSLRLSCPASGSTFYEYAMGWYRQEPGKERELVAAITSGGSTYYADSVKGRFTISRDNAKYTVYLQLNSQKPEDTAVYYCAADPRIRRGDRSTHGYDYWGQGTQVTVSS | low polyreactivity
